Data published in US20260022175A1 (Chugai, published 2026).
Positions count from the first letter of the chain named. One block for each binder: values may come before it.

Key:
[1] = biological target: T1, human FcγRIIb extracellular domain (human, UniProt P31994 43-217); experiment: SPR Biacore 8K+; KD of G1d divided by KD of this antibody;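 note: antibodies captured on an anti-Fab-kappa streptavidin chip, soluble FcγR ectodomains flowed over, KD by steady-state fit for FcγRIIb and Langmuir kinetic model for the other receptors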
T1 construct: extracellular domain; also called hFcγR IIb
T1 sequence (looked up): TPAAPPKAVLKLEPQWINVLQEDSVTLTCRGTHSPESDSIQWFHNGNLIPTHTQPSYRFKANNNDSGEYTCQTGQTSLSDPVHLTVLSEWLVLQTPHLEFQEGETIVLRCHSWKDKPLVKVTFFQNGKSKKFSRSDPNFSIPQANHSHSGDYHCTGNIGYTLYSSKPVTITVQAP

[2] = biological target: T2, human FcγRIIa H extracellular domain (human, UniProt P12318 34-217); experiment: as above
T2 construct: extracellular domain; also called hFcγR IIa H
T2 sequence (looked up): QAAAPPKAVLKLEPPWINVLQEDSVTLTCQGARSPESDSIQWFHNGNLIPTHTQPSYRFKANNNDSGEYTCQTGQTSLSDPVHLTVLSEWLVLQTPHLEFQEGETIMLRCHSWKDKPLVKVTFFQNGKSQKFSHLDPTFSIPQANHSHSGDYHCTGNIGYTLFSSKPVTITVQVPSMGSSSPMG

[3] = biological target: T3, human FcγRIIa R extracellular domain (human, UniProt P12318 34-217); experiment: as above
T3 construct: extracellular domain; also called hFcγR IIa R
T3 sequence (looked up): T2 sequence (looked up) with H134R

[4] = biological target: T4, human FcγRIIIa V extracellular domain (human, UniProt P08637 17-208); experiment: as above
T4 construct: extracellular domain; also called hFcγR IIIa V
T4 sequence (P08637 17-208 F176V limits assumed): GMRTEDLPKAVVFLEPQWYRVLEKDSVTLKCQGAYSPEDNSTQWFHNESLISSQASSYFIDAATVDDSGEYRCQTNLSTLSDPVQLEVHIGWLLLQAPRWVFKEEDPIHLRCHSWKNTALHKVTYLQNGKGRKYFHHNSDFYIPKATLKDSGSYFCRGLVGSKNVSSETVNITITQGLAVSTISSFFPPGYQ

[5] = biological target: T5, human FcγRIa extracellular domain (human, UniProt P12314 16-292); experiment: as above
T5 construct: extracellular domain; also called hFcγR Ia; hFcγRIa
T5 sequence (P12314 16-292): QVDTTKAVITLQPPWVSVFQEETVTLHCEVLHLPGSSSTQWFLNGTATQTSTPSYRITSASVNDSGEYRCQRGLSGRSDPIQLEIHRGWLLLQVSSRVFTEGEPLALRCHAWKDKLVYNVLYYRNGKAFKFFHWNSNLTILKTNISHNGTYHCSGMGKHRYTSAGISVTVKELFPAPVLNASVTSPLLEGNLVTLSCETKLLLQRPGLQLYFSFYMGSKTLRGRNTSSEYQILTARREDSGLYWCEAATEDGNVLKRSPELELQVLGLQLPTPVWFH

[6] = biological target: T6, human FcγRIIIa F extracellular domain (human, UniProt P08637 17-208); experiment: as above
T6 construct: extracellular domain; also called hFcγR IIIa F
T6 sequence (P08637 17-208): as the sequence (P08637 17-208 F176V limits assumed) above, with V160F counted along it

[7] = biological target: T7, human C1q protein (Calbiochem) (human, UniProt P02745 23-245; P02746 28-253; P02747 29-245); experiment: ELISA: antibody coated on the plate at the varied concentration, hC1q 3 µg/mL added, detected with HRP-conjugated anti-hC1q antibody, O.D (450-690nm)
T7 construct: bought; also called hC1q
T7 sequence (P02745 23-245 limits assumed, chain 1 of 3): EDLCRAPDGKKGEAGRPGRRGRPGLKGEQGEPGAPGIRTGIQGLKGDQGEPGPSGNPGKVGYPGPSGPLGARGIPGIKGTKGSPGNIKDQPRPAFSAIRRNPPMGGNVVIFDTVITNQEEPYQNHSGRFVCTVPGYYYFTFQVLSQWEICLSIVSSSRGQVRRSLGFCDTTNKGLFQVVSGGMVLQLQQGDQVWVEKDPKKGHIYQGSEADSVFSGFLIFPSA
T7 sequence (P02746 28-253 limits assumed, chain 2 of 3): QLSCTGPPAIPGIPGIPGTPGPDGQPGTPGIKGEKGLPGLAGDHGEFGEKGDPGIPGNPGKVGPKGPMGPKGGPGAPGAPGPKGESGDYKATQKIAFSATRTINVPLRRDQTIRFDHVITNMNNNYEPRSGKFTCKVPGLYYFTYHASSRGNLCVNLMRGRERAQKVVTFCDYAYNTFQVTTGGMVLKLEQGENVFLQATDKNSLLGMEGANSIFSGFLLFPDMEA
T7 sequence (P02747 29-245 limits assumed, chain 3 of 3): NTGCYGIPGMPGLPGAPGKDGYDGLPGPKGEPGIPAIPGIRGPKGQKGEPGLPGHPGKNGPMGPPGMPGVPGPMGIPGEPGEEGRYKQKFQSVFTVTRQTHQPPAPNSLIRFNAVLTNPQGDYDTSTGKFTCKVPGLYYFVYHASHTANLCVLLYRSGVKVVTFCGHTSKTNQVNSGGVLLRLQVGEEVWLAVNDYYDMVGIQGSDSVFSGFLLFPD

[8] = biological target: T2, human FcγRIIa H extracellular domain; experiment: SPR Biacore 8K+, antibody captured, FcγR as analyte, 1:1 Langmuir model;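 note: antibodies captured on a streptavidin chip through a biotinylated anti-human Fab kappa reagent, with FcγR extracellular domains injected in pH 7.4 phosphate buffer at 25 °C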
[9] = biological target: T3, human FcγRIIa R extracellular domain; experiment: as above
[10] = biological target: T4, human FcγRIIIa V extracellular domain; experiment: as above
[11] = biological target: T5, human FcγRIa extracellular domain; experiment: as above
[12] = biological target: T6, human FcγRIIIa F extracellular domain; experiment: as above
[13] = biological target: T1, human FcγRIIb extracellular domain; experiment: SPR Biacore 8K+, antibody captured, FcγR as analyte, steady state affinity model
[14] = biological target: T8, hFcγRIIaH on hFcγRIIaH-expressing Jurkat cells (human, UniProt P12318 34-317); experiment: cell-based or functional assay
T8 sequence (looked up): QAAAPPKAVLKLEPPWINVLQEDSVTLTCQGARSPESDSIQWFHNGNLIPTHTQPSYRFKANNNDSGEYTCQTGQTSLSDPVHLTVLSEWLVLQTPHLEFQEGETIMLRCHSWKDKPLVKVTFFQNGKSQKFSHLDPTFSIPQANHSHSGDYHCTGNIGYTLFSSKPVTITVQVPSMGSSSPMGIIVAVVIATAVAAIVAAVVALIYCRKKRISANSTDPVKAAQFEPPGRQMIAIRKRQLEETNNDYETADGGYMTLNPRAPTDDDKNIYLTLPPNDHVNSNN

[15] = biological target: T2, human FcγRIIa H extracellular domain; experiment: SPR Biacore 8K+; KD for FcγRIIb divided by KD for this FcγR;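 note: antibodies captured on an anti-human Fab kappa SA chip with soluble human FcγR ectodomains flowed over, FcγRIIb KD from steady-state fit, other FcγR KD from Langmuir model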
[16] = biological target: T3, human FcγRIIa R extracellular domain; experiment: as above
[17] = biological target: T4, human FcγRIIIa V extracellular domain; experiment: as above
[18] = biological target: T6, human FcγRIIIa F extracellular domain; experiment: as above
[19] = biological target: hFcγRIIIaV on hFcγRIIIaV-expressing Jurkat cells (human, UniProt P08637 17-254); experiment: cell-based or functional assay
Sequence of hFcγRIIIaV on hFcγRIIIaV-expressing Jurkat cells (P08637 17-254, form in doubt): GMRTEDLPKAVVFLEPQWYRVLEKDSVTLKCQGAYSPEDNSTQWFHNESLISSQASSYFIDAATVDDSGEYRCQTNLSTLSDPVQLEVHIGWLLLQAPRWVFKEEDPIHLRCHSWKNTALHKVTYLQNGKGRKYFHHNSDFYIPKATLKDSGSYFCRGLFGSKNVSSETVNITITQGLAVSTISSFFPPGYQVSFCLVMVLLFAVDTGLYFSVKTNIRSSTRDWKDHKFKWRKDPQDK

[20] = biological target: T9, hCTLA4-His-BAP (human CTLA4 extracellular region with C-terminal His-tag and BAP-tag) (human, biotin on the BAP-tag); experiment: SPR 37C, hCTLA4 1000 nM, ATP 1 µM; ATP 1 µM; binding amount at 1000 nM hCTLA4
T9 construct: also called hCTLA4-His-Biotin
T9 sequence (chain, as listed by the source limits assumed): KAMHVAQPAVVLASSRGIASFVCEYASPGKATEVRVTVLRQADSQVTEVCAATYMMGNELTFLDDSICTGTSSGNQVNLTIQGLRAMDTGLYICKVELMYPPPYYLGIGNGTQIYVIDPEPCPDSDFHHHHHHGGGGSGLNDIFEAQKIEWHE

[21] = biological target: T9, hCTLA4-His-BAP (human CTLA4 …); experiment: SPR 37C, hCTLA4 1000 nM, ATP 10 µM; ATP 10 µM; binding amount at 1000 nM hCTLA4
[22] = biological target: T9, hCTLA4-His-BAP (human CTLA4 …); experiment: SPR 37C, hCTLA4 1000 nM, no ATP; no ATP; binding amount at 1000 nM hCTLA4
[23] = biological target: T9, hCTLA4-His-BAP (human CTLA4 …); experiment: SPR 37C, ATP 10 µM; ATP 10 µM
[24] = biological target: T9, hCTLA4-His-BAP (human CTLA4 …); experiment: SPR 37C, ATP 100 µM; ATP 100 µM
[25] = biological target: T9, hCTLA4-His-BAP (human CTLA4 …); experiment: SPR 37C, hCTLA4 1000 nM, ATP 100 µM; ATP 100 µM; binding amount at 1000 nM hCTLA4

B3: 04H1077-G1m/04L1041-lam1 (antibody, human IgG1, lambda, V domains shown)
VH: EVQLVESGGDLVKPGGGLRLSCAASGFTFSSRTMNWVRQAPGKGLEWVSSISTRSGYIYYAESVKGRFTISRDNAKNSLYLQMNSLRAEDTAVYYCARYGKREDMLWVFDYWGQGTLVTVSS
VL: QSALTQPPSASGSPGQTVTISCDGPSTDVGDYNYVHWYQQHPGKAPKLMIYFTSKKPSGVPDRFSGSKSGNTASLTVSGLQAEDEADYFCSTYAAPLGPMFGGGTKLTVLG
Binding to Human CTLA4 [20]: 0.023 per unit amount of antibody
Binding to Human CTLA4 [21]: 0.094 per unit amount of antibody
Binding to Human CTLA4 [22]: 0.006 per unit amount of antibody
Kd [23]: 730 nM
Kd [24]: 140 nM
Binding to Human CTLA4 [25]: 0.172 per unit amount of antibody

B4: 04H1077-G1m/04L1067-lam1 (antibody, human IgG1, lambda, V domains shown)
VH: B3 VH
VL: B3 VL with D28G
Binding to Human CTLA4 [20]: 0.041 per unit amount of antibody
Binding to Human CTLA4 [21]: 0.131 per unit amount of antibody
Binding to Human CTLA4 [22]: 0.012 per unit amount of antibody
Kd [23]: 400 nM
Kd [24]: 76 nM
Binding to Human CTLA4 [25]: 0.192 per unit amount of antibody

The next lines start with the values.

Relative value to KD between G1d and hFcgRs [1]: 2.8
Relative value to KD between G1d and hFcgRs [2]: 15
Relative value to KD between G1d and hFcgRs [3]: 13.2
Relative value to KD between G1d and hFcgRs [4]: 695
Relative value to KD between G1d and hFcgRs [5]: 3.2
Relative value to KD between G1d and hFcgRs [6]: 1970
binding result [7]: binds
Kd [8]: 74.9 nM
Kd [9]: 126 nM
Kd [10]: 0.51 nM
Kd [11]: 0.028 nM
Kd [12]: 1.5 nM
Kd [13]: 3530 nM
EC50 value (hFcγRIIaH ADCP Reporter Bioassay, Hepa1-6/hEREG target cells) [14]: 17.1 ng/mL
A/I ratio (KD for FcγRIIb divided by KD for each FcγR) [15]: 47.2
A/I ratio (KD for FcγRIIb divided by KD for each FcγR) [16]: 28.1
A/I ratio (KD for FcγRIIb divided by KD for each FcγR) [17]: 6850
A/I ratio (KD for FcγRIIb divided by KD for each FcγR) [18]: 2350
EC50 value (hFcγRIIIaV ADCC Reporter Bioassay, Hepa1-6/hEREG target cells) [19]: 1.07 ng/mL
B1: H240-Kn461/L73-k0//H240-Hl443/L73-k0 (antibody, human IgG1, kappa)
heavy 1: QDQLVQSGAEVKKPGASVKVSCKASGFNIKDTYIQWVRQAPGQGLEWMGRIDPLRKQTKYREKFEGRVTITADTSTNTAYMELSSLRSEDTAVYYCVRSGREFDYWGQGTLVTVSSASTKGPSVFPLAPSSKSTSGGTAALGCLVKDYFPEPVTVSWNSGALTSGVHTFPAVLQSSGLYSLSSVVTVPSSSLGTQTYICNVNHKPSNTKVDKKVEPKSCDKTHTCPPCPAPEFQWGPMVFLFPPKPKDVLMISRTPEVTCVVVDVSDEEPEVKFNWYVDGVEVHNAKTKPREEQYNATYRVVSVLPVLHQDWLNGKEYKCKVSNDALPAPEEKTISKAKGQPREPQVCTLPPSRDELTKNQVSLWCLVKGFYPSDIAVEWESNGQPENNYKTTPPVLDSDGSFFLYSKLTVDKSRWQQGNVFSCSVMHEALHNHYTQKSLSLSP
heavy 2: QDQLVQSGAEVKKPGASVKVSCKASGFNIKDTYIQWVRQAPGQGLEWMGRIDPLRKQTKYREKFEGRVTITADTSTNTAYMELSSLRSEDTAVYYCVRSGREFDYWGQGTLVTVSSASTKGPSVFPLAPSSKSTSGGTAALGCLVKDYFPEPVTVSWNSGALTSGVHTFPAVLQSSGLYSLSSVVTVPSSSLGTQTYICNVNHKPSNTKVDKKVEPKSCDKTHTCPPCPAPELLAGPSVFLFPPKPKDVLMISRTPEVTCVVVDVSHEEPEVKFNWYVDGVEVHNAKTKPREEQYNATYRVVSVLPVLHQDWLNGKEYKCKVSNDALPAPEEETISKAKGQPREPQVYTLPPSRCELTKNQVSLSCAVKGFYPSDIAVEWESNGQPENNYKTTPPVLDSDGSFFLVSKLTVDKSRWQQGNVFSCSVMHEALHNHYTQKSLSLSP
light: DIQMTQSPSSLSASVGDRVTITCRASQDIHKYIAWYQQKPGQAPRLLIQYTSTLQPGVPSRFSGSGSGTDYTFTISSLQPEDIATYYCLQYEQLRTFGGGTKVEIKRTVAAPSVFIFPPSDEQLKSGTASVVCLLNNFYPREAKVQWKVDNALQSGNSQESVTEQDSKDSTYSLSSTLTLSKADYEKHKVYACEVTHQGLSSPVTKSFNRGEC
notes: also called EGL-ART8; ART8

Relative value to KD between G1d and hFcgRs [1]: 1.3
Relative value to KD between G1d and hFcgRs [2]: 33.9
Relative value to KD between G1d and hFcgRs [3]: 10.4
Relative value to KD between G1d and hFcgRs [4]: 92.9
Relative value to KD between G1d and hFcgRs [5]: 0.5
Relative value to KD between G1d and hFcgRs [6]: 148
binding result [7]: binds
Kd [8]: 33.2 nM
Kd [9]: 160 nM
Kd [10]: 3.86 nM
Kd [11]: 0.169 nM
Kd [12]: 20 nM
Kd [13]: 7960 nM
EC50 value (hFcγRIIaH ADCP Reporter Bioassay, Hepa1-6/hEREG target cells) [14]: 24.5 ng/mL
A/I ratio (KD for FcγRIIb divided by KD for each FcγR) [15]: 240
A/I ratio (KD for FcγRIIb divided by KD for each FcγR) [16]: 49.9
A/I ratio (KD for FcγRIIb divided by KD for each FcγR) [17]: 2060
A/I ratio (KD for FcγRIIb divided by KD for each FcγR) [18]: 399
EC50 value (hFcγRIIIaV ADCC Reporter Bioassay, Hepa1-6/hEREG target cells) [19]: 1.67 ng/mL
B2: H240-Kn462/L73-k0//H240-Hl441/L73-k0 (antibody, human IgG1, kappa)
heavy 1: B1 heavy 1 with E331I
heavy 2: B1 heavy 2 with E331I
light: B1 light
notes: also called EGL-ART5; ART5

Binding to Human CTLA4 [20]: 0.031 per unit amount of antibody
Binding to Human CTLA4 [21]: 0.106 per unit amount of antibody
Binding to Human CTLA4 [22]: 0.01 per unit amount of antibody
Kd [23]: 690 nM
Kd [24]: 110 nM
Binding to Human CTLA4 [25]: 0.181 per unit amount of antibody
B5: 04H1077-G1m/04L1086-lam1 (antibody, human IgG1, lambda, V domains shown)
VH: B3 VH
VL: B3 VL with D28G, S91Q
